Test results: the supplement of paper PMC10598134
± gives the standard deviation.

Assay: collision cross section of unmodified peptide (TIMS, N2, iRT-aligned); higher = larger / more extended gas-phase ion
How it was run: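 Collision cross section was derived from the Mason-Schamp equation. Each value averages 1–3 technical replicates of the most abundant feature per charge state, measured on a timsTOF Pro/HT in dda-PASEF mode (nitrogen, ~2.4 mbar) after a 120-min nanoflow C18 gradient at 60 °C. Synthetic peptide pools (~100 fmol/µL in 2% acetonitrile/0.1% formic acid, iRT standard spiked 1:40) were identified with MaxQuant, and 1/K0 was calibrated with three reference ions and aligned run-wise to the median iRT peptide deviation.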

Substance | collision cross section (charge state: 3) [Å²] | collision cross section (charge state: 2) [Å²]
SPPLPEHQKIPCNSAEPK | 527.39 ± 1.3 | –
GQQGEPGPK | – | 313.75 ± 0.93
DLGKFQVATDALK | 498.11 ± 6.1 | 413.55 ± 3.7
AQSYAQQLGR | – | 352.59 ± 0.74
HGGSGGRGVSVSSAR | 479.93 ± 1.3 | –
GSHGQTPSPGALPLGR | 463.73 ± 0.22 | –
VYPSSLSK | – | 317.31 ± 0.73
SLFFGGKGAPLQR | 446.07 ± 3.4 | 408.73 ± 1.1
LQLEIDQKK | 427.93 ± 3.7 | 366.48 ± 1.6
SGFGKFER | – | 339.56 ± 3
LQEKVESAQSEQK | 487.5 ± 6.9 | 416.22 ± 2.1
GYGVIFANGNR | – | 361.55 ± 0.6
FSPPSSSLQPGK | – | 371.43 ± 0.67
IEDEQALGSQLQK | 493.77 ± 0.29 | 401.79 ± 0.14
IISSIEQKEENK | 479.1 ± 6.7 | 409.72 ± 2.2
GHYTIGK | – | 315.37 ± 1.9
ASCLYGQLPK | – | 363.85 ± 0.6
TLQKQSVVYGGK | 444.64 ± 5 | 390.15 ± 1.7
IHVQSSSDSSDEPAEKR | 536.3 ± 1.4 | 455.51 ± 2.8
VLDSGAPIKIPVGPETLGR | 510.9 ± 2.1 | 485.73 ± 3
TTEETSKPK | 430.05 ± 3.7 | 341.31 ± 0.82
GGSAGGRGFFR | 432.59 ± 6.7 | 360.79 ± 0.54
DDSFLGKLGGTLAR | 475.25 ± 2.7 | 410.69 ± 1.4
GDTGLPGPQGIPGGVGSPGR | 497.26 ± 35 | 429.26 ± 1
GEPGIPAIPGIRGPK | 515.69 ± 0.34 | 382.37 ± 0.58
DVNAAIAAIKTK | 461.97 ± 1.6 | 391.89 ± 2.3

Substance | collision cross section (charge state: 3) [Å²] | collision cross section (charge state: 2) [Å²]
GGGGGGGGGAPRGR | 426.09 ± 5.4 | 341.22 ± 1.4
AYPLADAHLTK | 452.45 ± 1.1 | 383.63 ± 0.16
SGYSSPGSPGTPGSR | – | 379.95 ± 0.14
GRGGPGPAQR | 428.92 ± 5.9 | 323.16 ± 0.71
FNALFAQGNYSEAAK | – | 435.05 ± 0.49
GGFQNRGGGSGGGGNYR | 474.43 ± 1.4 | 412.29
GADFLVTEVENGGSLGSKK | 535.68 ± 1.1 | 494.06 ± 6.8
YIGTGHADTTK | 452.61 ± 1.1 | 357.91 ± 0.48
AEGYEVAHGGR | 438.28 ± 0.89 | 358.34 ± 0.55
LGPNDQYK | – | 325.88 ± 0.73
APIISGVTK | – | 322.45 ± 0.15
LGSPSGKTGTCR | 458.08 ± 4.7 | 383.86 ± 1.2
ISEILLDHGAPIQAK | 537.87 ± 1.7 | 447.46 ± 0.13
GAEKTEVAEPR | 445.67 ± 5 | 369.12 ± 1.5
IQTVPASHLQQGTASGSSK | 490.25 ± 12 | –
AYGELPEHAK | 441.2 ± 1.1 | 366.13 ± 0.54
TLTPASSPVSSPSK | – | 389.93 ± 0.025
SITHSTVGSKGEK | 464.75 ± 3.9 | 404.31 ± 1.8
PRTPTAPAVNLAGAR | 484.37 ± 1.2 | 406.96 ± 1.8
RLPTTGYLVYR | 475.19 ± 2.9 | 389.8 ± 0.35
GRGAANDSTQFTVAGR | 473.86 ± 2.3 | 411.19
GRGTGEAEEEYVGPR | 491.56 ± 0.9 | 410.08 ± 0.96
IGAEVYHHLK | 435.97 ± 1.1 | 371.39 ± 0.54
VGVEAKQPNSAIR | 493.5 ± 7.8 | 404.68 ± 1.4
VGEFSGANKEK | 443.03 ± 4.2 | 374.9 ± 0.4
